T1: human CTLA4 (human, UniProt P16410 36-161, limits assumed)
T1 sequence (looked up): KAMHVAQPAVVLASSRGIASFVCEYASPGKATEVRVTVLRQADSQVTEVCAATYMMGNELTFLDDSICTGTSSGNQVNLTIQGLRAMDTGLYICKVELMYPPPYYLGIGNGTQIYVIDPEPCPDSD

T2: human ICOS (human, UniProt Q9Y6W8 21-140, limits assumed)
T2 sequence (looked up): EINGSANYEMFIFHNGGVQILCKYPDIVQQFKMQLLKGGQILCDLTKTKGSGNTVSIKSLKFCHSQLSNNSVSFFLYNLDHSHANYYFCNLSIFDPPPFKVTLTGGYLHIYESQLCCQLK

T3: mouse PD-1 (mouse, UniProt Q02242 25-169, limits assumed)
T3 sequence (looked up): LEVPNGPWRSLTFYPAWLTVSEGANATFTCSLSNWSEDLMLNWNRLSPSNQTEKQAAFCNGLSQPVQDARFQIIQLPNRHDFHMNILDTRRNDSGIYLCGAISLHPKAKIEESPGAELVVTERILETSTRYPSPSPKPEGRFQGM


Tests used:
[1] = biological target: T4, human PD-1 (construct not stated) (human, UniProt Q15116 25-167, limits assumed); assay: Biacore (summary table; unit from Table 7)
T4 construct: also called PD-1 analyte
T4 sequence (Q15116 25-167 limits assumed): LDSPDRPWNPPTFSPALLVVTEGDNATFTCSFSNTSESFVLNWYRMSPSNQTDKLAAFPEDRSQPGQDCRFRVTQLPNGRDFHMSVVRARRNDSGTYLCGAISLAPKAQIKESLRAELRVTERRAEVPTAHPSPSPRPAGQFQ
Experimental: (§1) To further characterize the binding characteristics of the antibodies, 10 hybridoma antibodies were profiled using Biacore (Biacore 3000, GE) to elucidate binding kinetics and calculate equilibrium binding constants. This assay was performed by capture method, using the mouse antibody capture kit (BR-1008-38, GE). After diluting anti-mouse Fc mab to 25 μg/ml in pH 5.0 immobilization buffer, immobilization was conducted with the parameters shown in Table 6 at a flow rate of 5 μl/min. The kinetic runs were done by 1) injecting ligand for typical 0.5-1 min at flow rate of 10 μl/min.; 2) injecting analytes of choice for typical 3 min followed by dissociation in running buffer (1× PBS-P20) for typical 5-10 min at flow rate of 30 μl/min.; and 3) injecting regeneration solution 10 mM Glycine pH1.7 for typical 1-2 min at flow rate of 10 μl/min.

[2] = biological target: T4, human PD-1 (construct not stated); assay: Biacore, antibody captured, PD-1 analyte
Experimental: as §1

[3] = biological target: T5, human PD-1 on cells (293T cells transfected with human PD-1) (human, UniProt Q15116 25-288); assay: FACS blockage on hPD-1-293T cells, competitor biotin PD-L1
T5 construct: whole, on cells; Also used as the target for the functional rows, where PD-1 stands on human T cells
T5 sequence (Q15116 25-288): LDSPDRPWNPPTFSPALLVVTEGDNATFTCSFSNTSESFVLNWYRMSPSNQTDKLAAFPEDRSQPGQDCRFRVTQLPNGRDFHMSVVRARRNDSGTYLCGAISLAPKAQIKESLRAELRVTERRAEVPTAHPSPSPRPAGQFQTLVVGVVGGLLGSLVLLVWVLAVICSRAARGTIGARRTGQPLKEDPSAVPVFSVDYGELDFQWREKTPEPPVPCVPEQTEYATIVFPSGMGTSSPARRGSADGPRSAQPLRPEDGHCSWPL
Experimental: (§2) Various concentrations of the testing hybridoma antibodies were added to the cell suspension and incubated at 4° C. for 60 minutes in 96 well plates. […] Plates were washed 3 times, and mouse anti-biotin PE antibody (Biolgend, cat# 409004) was added. Flow cytometric analyses were performed using a FACS Array.
(§3) The purified hybridoma antibodies were characterized further based on ELISA and FACS analyses.

[4] = biological target: T5, human PD-1 on cells (293T cells …); assay: FACS blockage on hPD-1-293T cells, competitor biotin PD-L2
Experimental: as §2, §3

[5] = biological target: T6, human PD-1 extracellular domain fused with human Fc tag (hPD-1-hFc) (human); assay: ELISA on coated PD1-hFc
T6 construct: also called human PD-1-hFc
T6 sequence (chain, as listed by the source limits assumed): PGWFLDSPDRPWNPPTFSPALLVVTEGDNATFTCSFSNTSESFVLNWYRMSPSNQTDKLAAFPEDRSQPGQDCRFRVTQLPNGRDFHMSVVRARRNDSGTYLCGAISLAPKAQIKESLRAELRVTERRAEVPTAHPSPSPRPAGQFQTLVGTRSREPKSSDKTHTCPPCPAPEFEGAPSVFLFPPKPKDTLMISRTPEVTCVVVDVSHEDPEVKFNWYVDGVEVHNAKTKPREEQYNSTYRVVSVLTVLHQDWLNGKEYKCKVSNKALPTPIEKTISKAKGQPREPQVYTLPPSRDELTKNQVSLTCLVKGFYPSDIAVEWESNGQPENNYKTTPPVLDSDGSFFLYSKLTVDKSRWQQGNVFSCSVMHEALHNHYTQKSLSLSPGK
Experimental: (§4) ELISA binding analysis was conducted based on human PD-1-hFc Protein. 96-well plates (Costar, Cat No:9018) were coated with 100 μL of 2 μg/ml PD1-hFc (CrownBio) in coating buffer (PBS, Hyclone, Cat No:SH30256.01B) overnight at 4° C. The wells were aspirated and non-specific binding sites were blocked by adding 200 μL of blocking buffer with 1% (w/v) of bovine serum albumin (BSA, Roche, Cat No: 738328) and incubating for 1 hour at 37° C. After the plates are washed three times with wash buffer (PBS with 0.05%(v/v) Tween20 (Sigma, Cat No:P1379), 100 μL/well of a suitable dilutions of hybridoma supernatant in blocking buffer were added and incubated at room temperature for 1 hour. The plates were washed and incubated with 100 μL/well of Goat anti-Mouse IgG (H+L) (Thermo, Cat No: 31432) in blocking buffer for 60 min. After the plates were washed, 100 μL/well of substrate solution (TMB(eBioscience, Cat No:00-4201-56) was added and the plates were incubated for 2min at room temperature. 100 μL/well of stop solution (2N H2SO4) was added to stop the reaction. The colorimetric signals were developed and read at 450 nm using a Auto Plate SpectraMax Plus (Supplier: Molecular Devices; Model: MNR0643; Software: SoftMax Pro v5.4).
as §3

[6] = biological target: T7, human PD-1 extracellular domain fused with mouse Fc (PD-1-mFc) (human, UniProt Q15116 25-170); assay: blockage ELISA, coated PD-1-mFc, competitor PDL-1-mFc-biotin
T7 construct: extracellular domain; not used because of the label; also called hPD-1-mFc; human PD-1-mouse Fc fusion protein
T7 sequence (Q15116 25-170): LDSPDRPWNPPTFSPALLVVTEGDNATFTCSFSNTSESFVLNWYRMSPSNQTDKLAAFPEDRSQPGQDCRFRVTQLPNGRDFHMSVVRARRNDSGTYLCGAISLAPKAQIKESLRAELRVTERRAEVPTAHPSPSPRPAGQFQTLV
Experimental: (§5) PD-1-mFc antigen (CrownBio) was suspended in PBS (Hyclone,Cat No:SH30256.01B) buffer (2 ug/ml, 100 ul/ well) and coated on the 96 well plate (costar, Cat No.:9018) 4° C. overnight. Plates were washed 3 times using washing buffer: PBS+0.05% Tween 20(Sigma, Cat No.:P1379). 200 ul of blocking buffer (PBS+1%BSA(Roche, Cat No.:738328)), was added to each well, incubated at 37° C. for 1 hour, and washed 3 times. Various concentrations (suitable dilutions of hybridoma supernatant in PBS) of the anti-PD-1 Abs were added to the wells (100 μl/well) and incubated at 37° C. for 1 hour. […] Secondary antibody (Avidin HRP eBioscience cat No.:E07418-1632, 1:500, 100 ul/well) was added, incubated at 37 ° C. for 0.5 hour, and washed 3 times. TMB (Sigma, Cat No.: T0440, 100 ul/well) was added, and incubated for 3 min at RT. To stop the reaction, 2N H2SO4 (100 ul/well), was added. The colorimetric signals were developed and read at 450 nm using a Auto Plate SpectraMax Plus (Supplier: Molecular Devices; Model: MNR0643; Software: SoftMax Pro v5.4).
as §3

[7] = biological target: T1, human CTLA4; assay: Interaction with CTLA4, ICOS CD28; assay not detailed
[8] = biological target: T2, human ICOS; assay: as above
[9] = biological target: human CD28 (human, UniProt P10747 19-152, limits assumed); assay: as above
Sequence of human CD28 (P10747 19-152 limits assumed): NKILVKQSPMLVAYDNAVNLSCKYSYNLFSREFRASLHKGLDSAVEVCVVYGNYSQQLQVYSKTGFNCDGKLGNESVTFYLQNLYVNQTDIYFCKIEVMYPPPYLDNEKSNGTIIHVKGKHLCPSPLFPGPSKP

[10] = biological target: T6, human PD-1 extracellular domain fused …; assay: ELISA binding (summary table)
Experimental: as §4, §3

[11] = biological target: T3, mouse PD-1; assay: assays not detailed
[12] = biological target: T7, human PD-1 extracellular domain fused …; assay: blockage ELISA, competitor PDL-1-mFc-biotin (summary table; IC50 in ng/ml in Table 2)
Experimental: as §5

[13] = biological target: T6, human PD-1 extracellular domain fused …; assay: ELISA on coated PD1-hFc; remark: listed apart in the source
Experimental: as §4
(§6) Freestyle 293 cells (200 mL at 10⁶/mL) were transfected with 100 μg of each of the chimeric heavy and light chain expression plasmids and cultured for 6 days. The chimeric antibody in the supernatant was then purified with Protein-G column (GE healthcare).

[14] = biological target: T7, human PD-1 extracellular domain fused …; assay: blockage ELISA, coated PD-1-mFc, competitor PDL-1-mFc-biotin; remark: listed apart in the source
Experimental: as §5, §6

[15] = biological target: T5, human PD-1 on cells (293T cells …); assay: FACS blockage on hPD-1-293T cells, competitor biotin PD-L1; remark: listed apart in the source
Experimental: as §2, §6

[16] = biological target: T5, human PD-1 on cells (293T cells …); assay: FACS on hPD-1-293T cells
Experimental: The cells were incubated with the indicated antibody (20 ug/ml with the dilution of ⅕) at 4° C. for 1 h. Cells were washed three times with FACS buffer. A secondary antibody (PE Goat anti-mouse: 1:200; PE mouse anti-human: 1:10) was added to the cells at 100 ul/well, and incubated at 4° C. for 40min. Cells were washed three times with FACS buffer and analyzed by FACS Array.
as §6

Binder | Kd [1] [nM] | Ka [2] [M⁻¹] | Kd [2] [nM] | koff [2] [s⁻¹] | kon [2] [M⁻¹ s⁻¹] | IC50 [3] [µg/mL] | IC50 [4] [µg/mL] | EC50 [5] [µg/mL] | IC50 [6] [µg/mL] | binding result [7] | binding result [8] | binding result [9] | EC50 [10] [µg/mL] | binding result [11] | IC50 [12] [µg/mL] | EC50 [13] [µg/mL] | IC50 [14] [µg/mL] | IC50 [15] [µg/mL] | EC50 [16] [µg/mL]
10D1 murine anti-PD-1 antibody (antibody, V domains shown, Purified hybridoma antibody; also called 10D1-mIgG1) VH: EVKLVESGGGLVKPGGSLKLSCAASGFTFSSYGMSWLRQTPEKRLEWVATMSGGGRDIYYPDSMKGRFTISRDNAKNNLYLQMSSLRSEDTALYYCARQYYDDWFAYWGQGTLVTVSA VL: DIVLTQTPATLSVTPGDSVSLSCRASQSISNNLHWYQQKSHESPRLLIKYASQSISGIPSRFSGSGSGTDFTLNINSVETEDFGMYFCQQSNSWPLTFGAGTKLELKR | 0.0623 | 1.6e+10 | 0.0623 | 5.24e-05 | 840000 | 0.0369 | 0.15 | 0.0172 | 1.41 | no binding | no binding | no binding | 0.0172 | no binding | 1.41 |  |  |  | 
chimeric 6E1-hIgG4 (antibody, V domains shown, Mouse variable regions with human IgG4 constant region) VH: EVKLVESGGGLVKPGGSLKLSCAASGFTFSSYGMSWVRQTPEKRLEWVATISGGGRDTYYLDSVKGRFTISRDNAKNNLYLQMSSLRSEDTALYYCVRQYYDDWFAYWGQGTLVSNSA VL: DIVLTQTPATLSVTPGDSVSLSCRASQSLSNNLHWYQQKSHESPRLLIKYASQSISGIPSRFSGSGSGTDFTLSINSVETEDFGMYFCQQSNSWPLTFGAGTKLEMKR |  |  |  |  |  |  |  |  |  |  |  |  |  |  |  | 0.0325 | 0.869 | 0.054 | 0.143
14A6 murine anti-PD-1 antibody (antibody, V domains shown, Purified hybridoma antibody; also called 14A6-mIgG1) VH: DVQLQESGPGLVKPSQSLSLTCTVTGYSITSDYAWNWIRQFPGNQLEWMAYISYSGYTSYNPSLKSRISITRDTSRNQFFLQLNSVTTEDTATYYCARSLDYDYGTMDYWGQGTSVTVSS VL: QIVLSQSPAILSASPGEKVTMTCRANSSVSSMHWYQQKPGSSPEPWIYAISNLAFGVPARFSGSGSGTSYSLTISRVEAEDAATYFCQQWNSRPPTFGGGTKLEIKR | 0.03 | 3.33e+10 | 0.03 | 4.52e-05 | 1.51e+06 | 0.0211 | 0.092 | 0.00707 | 0.923 | no binding | no binding | no binding | 0.00707 | no binding | 0.923 |  |  |  | 
5A8 murine anti-PD-1 antibody (antibody, V domains shown, Purified hybridoma antibody; also called 5A8-mIgG1) VH: QVQLQQSGDELVRPGTSVKMSCKAAGYTFTNNWIGWVKQRPGHGLEWIGDFYPGGGYTNYNEKFKGKATLTADTSSSTAYMQLSSLTSEDSAIYYCARGYGTNYWYFDVWGAGTTVTVSS VL: NIVMTQTPKILFISAGDRVTITCKASQSVSNDVAWYQQKPGQSPKLLIYYAFTRYIGVPDRFTGSGYGTDFTFTISTVQAEDLAVYFCQQDYSSPYTFGGGTKLEIKR | 0.0587 | 1.7e+10 | 0.0587 | 7.55e-05 | 1.29e+06 | 0.0282 | 0.0188 | 0.0112 | 1.13 | no binding | no binding | no binding | 0.0112 | no binding | 1.13 |  |  |  | 

Now from value to binder:

Kd [1] [nM] | Ka [2] [M⁻¹] | Kd [2] [nM] | koff [2] [s⁻¹] | kon [2] [M⁻¹ s⁻¹] | IC50 [3] [µg/mL] | IC50 [4] [µg/mL] | EC50 [5] [µg/mL] | IC50 [6] [µg/mL] | binding result [7] | binding result [8] | binding result [9] | EC50 [10] [µg/mL] | binding result [11] | IC50 [12] [µg/mL] | EC50 [13] [µg/mL] | IC50 [14] [µg/mL] | IC50 [15] [µg/mL] | EC50 [16] [µg/mL] | Binder
 |  |  |  |  |  |  |  |  |  |  |  |  |  |  | 0.0517 | 0.948 |  | 0.131 | chimeric 7D3-hIgG4 (antibody, V domains shown, Mouse variable regions with human IgG4 constant region) VH: EVKLVESGGGLVKPGGSLKLSCGASGFTFSSYGMSWVRQTPEKRLEWVATISGGGRDIYYPDSVKGRLTISRDNAKNNLYLQMSSLRSEDTALYYCVRQYYDDWFAYWGQGTLVTVSA VL: DIVLTQSPATLSVTPGDSVSLSCRASQSISNDLHWYQQKSHESPRLLIKYVSQSISGIPSRFSGSGSGTDFTLSINSVETEDFGMYFCQQSDSWPLTFGAGTKLELKR
 |  |  |  |  |  |  |  |  |  |  |  |  |  |  | 0.0818 | 1.37 | 0.101 | 0.244 | chimeric 15H5-hIgG4 (antibody, V domains shown, Mouse variable regions with human IgG4 constant region) VH: EVKLVESGGGLVKPGGSLKLSCAASGFAFRSYDMSWVRQTPEKILEWVATISGGGSYTYYQDSVKGRFTISRDNARNTLYLQMSSLRSEDTALYYCASPYGPYFDYWGQGTTLTVSS VL: DIQMNQSPSSLSASLGDTITITCHASQSINVWLSWYQQKPGNIPKLLIYRASNLHTGVPSRFSGSGSGTGFTLTISSLQPDDIATYYCQQGQSYPWTFGGGTKLEIKR

Reference: patent US20170267762A1 (APOLLOMICS, published 2017)
